Data on 66 molecules can be found in US20170165337A1 (IMMATICS BIOTECHNOLOGIES, published 2017).

For this assay, the target named is T1, HLA-A*02:01 (human).
T1 construct: MHC class I monomer of the UV-ligand exchange assay; also called peptide-receptive MHC molecules; MHC class I
Kind of assay: UV peptide-exchange ELISA. The gist of the method: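 Peptide-MHC complexes formed by UV-mediated exchange of a UV-cleavable peptide for the test peptide; exchange yield quantified by β2m ELISA. Diluted 100-fold, captured on streptavidin-coated plates 1 h at 37 °C, detected with HRP anti-β2m and TMB at 450 nm against refolded HLA-A*02:01 monomer standards (15-500 ng/ml).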
In general terms: In an ELISA, binding on a coated surface is turned into a signal by an enzyme label.

Molecule KLLEEICNL came in with a peptide exchange yield of at least 75%.
The same measure for ELMHGVAGV: 50 to 75%; for LLLTKPTEA: 50 to 75%.
On to ALAKPPVVSV, for which the peptide exchange yield lay in the range of 50 to 75%.
With VLMWEIYSL the figure was 50 to 75%; with TIAPVTVAV, at least 75%; with ILYGTQFVL, 50 to 75%.
With VMIQHVENL the figure was 50 to 75%; with FLHDHQAEL, 20 to 50%; with ALEDRVWEL, 50 to 75%.
With ATPMPTPSV the figure was 20 to 50%.
As to FIDKFTPPV, the peptide exchange yield is at least 75%.
With MLLEHGITL the figure was 50 to 75%.
VLIKWFPEV showed a peptide exchange yield of at least 75%.
With FLDMTNWNL, the peptide exchange yield was at least 75%.
The same measure for QVIPQLQTV: 50 to 75%; for VVAEELENV: 20 to 50%.
With HLIDTNKIQL the figure was 50 to 75%; with FILTHVDQL, at least 75%; with SLITPLQAV, 50 to 75%.
With ITTEVVNELYV the figure was 50 to 75%; with SLASIHVPL, 50 to 75%; with NLLAHIWAL, 50 to 75%.
RLLEFELAQL: the peptide exchange yield is 50 to 75%.
With FMQDPMEVFV the figure was 50 to 75%; with YLLEEKIASL, 50 to 75%.
With ILQEFESKL the figure was 50 to 75%; with LLVDVEPKV, 50 to 75%.
Turning to VLAFENPQV, the peptide exchange yield lay within 50 to 75%.
The same measure for TLENGVPCV: 50 to 75%; for ALVFELHYV: 50 to 75%.
YMAVTTQEV: the peptide exchange yield is at least 75%.
The same measure for VTLEFPQLIRV: 50 to 75%; for LVYEAPETV: 50 to 75%.
Regarding ILTELGGFEV, the peptide exchange yield lay within 50 to 75%.
With VLMDGSVKL the figure was at least 75%.
With FILPSSLYL the figure was 50 to 75%; with ELLEGSEIYL, 50 to 75%; with YLPYIFPNI, 50 to 75%.
LLSTLHLLV yielded a peptide exchange yield of 50 to 75%.
With VLLPQETAEIHL the figure was at least 75%.
VIAELPPKV yielded a peptide exchange yield of 20 to 50%.
The same measure for VLAFLVHEL: at least 75%; for KMDWIFHTI: 50 to 75%; for SLYSALQQA: 50 to 75%.
The same measure for LLAELPASVHA: 50 to 75%.
With GLWGTVVNI the figure was 50 to 75%; with VLWELAHLPTL, 50 to 75%; with YLYQEQYFI, 50 to 75%.
For FLTDYLNDL, the peptide exchange yield lay in the range of 50 to 75%.
Take LLYNSTDPTL: the peptide exchange yield fell in the range of 50 to 75%.
With LMKDCEAEV the figure was 50 to 75%; with LISPLLLPV, 50 to 75%; with ALATHILSL, 50 to 75%.
With YLGPVSPSL the figure was 50 to 75%; with YLIEPDVELQRI, 50 to 75%; with SLDLFNCEV, at least 75%.
The same measure for FIMDDPAGNSYL: 50 to 75%.
On to NLQVTQPTV, for which the peptide exchange yield lay within 50 to 75%.
The same measure for FLIQEIKTL: 50 to 75%.
The same measure for LMADLEGLHL: 50 to 75%; for ALSEKLARL: 50 to 75%; for VLVQVSPSL: 50 to 75%.
With SLYDVSRMYV the figure was at least 75%; with YMYEKESEL, 20 to 50%; with FIWPMLIHI, 50 to 75%.
